From US20160199440A1 (UNIVERSITY OF ROCHESTER, published 2016) come the findings set out here.

The test concerns the target T1, Claudin 1 (endogenous, in 16HBE human bronchial epithelial cells) (human, UniProt O95832 1-211).
T1 sequence (looked up): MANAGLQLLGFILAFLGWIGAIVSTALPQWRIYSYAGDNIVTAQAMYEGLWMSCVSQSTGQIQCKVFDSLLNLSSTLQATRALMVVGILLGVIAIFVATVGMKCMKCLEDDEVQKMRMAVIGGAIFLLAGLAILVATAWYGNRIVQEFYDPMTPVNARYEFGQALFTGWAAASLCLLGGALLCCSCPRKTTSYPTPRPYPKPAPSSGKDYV
Description: cell-based or functional assay.

B1: Peptide 2a, scrambled peptide (peptide)
peptide: H-SILTGVSTLDQSLKQLSNFSQAVSTQSSR-NH2
For the molecule B1, the “enhancement of penetration of labeled Synagis antibody (168 kD), 2.4 µM peptide” value worked out at 4.9 fold; the “enhancement of penetration of labeled Synagis antibody (168 kD), 12 µM peptide” value turned out to be 5.6 fold; the “increase in FD-40 permeability, 2.4 µM peptide” value is 25.3 fold; the “increase in FD-40 permeability, 12 µM peptide” value came to 30.5 fold. For the same molecule, the “increase in fluorescein permeability, 2.4 µM peptide” value came out at 5.6 fold and the “increase in fluorescein permeability, 12 µM peptide” value turned out to be 16.4 fold.

B2: Peptide 1a, hCldn1 (53-81, C54,64S) (peptide)
peptide: H-SSVSQSTGQIQSKVFDSLLNLSSTLQATR-NH2
With B2, the “enhancement of penetration of labeled Synagis antibody (168 kD), 2.4 µM peptide” value is 2.5 fold; the “enhancement of penetration of labeled Synagis antibody (168 kD), 12 µM peptide” value turned out to be 3.2 fold; the “increase in FD-40 permeability, 12 µM peptide” value was determined as 16.8 fold; the “increase in FITC-dextran 40 kDa (FD-40) permeability, 2.4 µM peptide” value is 11.2 fold. For the same molecule, the “increase in fluorescein (0.4 kDa) permeability, 2.4 µM peptide” value is 4.1 fold and the “increase in fluorescein permeability, 12 µM peptide” value worked out at 6.7 fold.
